Experimental data published in patent publication US20090325867A1, “RECEPTOR-SPECIFIC TUMOUR NECROSIS FACTOR-RELATED APOPTOSIS-INDUCING LIGAND (TRAIL) VARIANTS” (MEDICAL RESEARCH COUNCIL, priority 2005, published 2009).

B1: TRAIL.R2-6: His-TRAIL (95-281) with 189Gln, 191Lys, 193Arg, 264Arg, 266Leu, 267Gln; TRAIL-R2 selective mutant (protein)
chain: TSEETISTVQEKQQNISPLVRERGPQRVAAHITGTRGRSNTLSSPNSKNEKALGRKINSWESSRSGHSFLSNLHLRNGELVIHEKGFYYIYSQTQFKFREEIKENTKNDKQMVQYIYKYTSYPDPILLMKSARNSCWSKDAEYGLYSIYQGGIFELKENDRIFVSVTNERLLQMDHEASFFGAFLVG
modifications: biotin (site not stated) in the DISC analysis only; not biotinylated in the apoptosis assays
B2: TRAIL.R1-6: His-TRAIL (95-281) with 189Ala, 193Ser, 199Val, 201Arg, 213Trp, 215Asp; proposed TRAIL-R1 selective mutant of Kelley et al. (protein)
chain: TSEETISTVQEKQQNISPLVRERGPQRVAAHITGTRGRSNTLSSPNSKNEKALGRKINSWESSRSGHSFLSNLHLRNGELVIHEKGFYYIYSQTAFRFSEEIKEVTRNDKQMVQYIYKWTDYPDPILLMKSARNSCWSKDAEYGLYSIYQGGIFELKENDRIFVSVTNEHLIDMDHEASFFGAFLVG
modifications: biotin (site not stated) in the DISC analysis only; not biotinylated in the apoptosis assays
B3: wild type: His-tagged human recombinant TRAIL residues 95-281, wild type sequence (protein)
chain: TSEETISTVQEKQQNISPLVRERGPQRVAAHITGTRGRSNTLSSPNSKNEKALGRKINSWESSRSGHSFLSNLHLRNGELVIHEKGFYYIYSQTYFRFQEEIKENTKNDKQMVQYIYKYTSYPDPILLMKSARNSCWSKDAEYGLYSIYQGGIFELKENDRIFVSVTNEHLIDMDHEASFFGAFLVG
modifications: biotin (site not stated) in the DISC analysis only; not biotinylated in the apoptosis assays

Assays:
primary MCL cells = assay: Apoptosis in freshly isolated primary MCL cells with or without depsipeptide pre-treatment; assay type: cell-based, human; settings: spontaneous apoptosis 23.4±2.9%
Method: Cell lines were also pre-incubated for 30 min with a TRAIL-R1 blocking Ab and a TRAIL-R2 neutralizing Ab from Alexis and R&D systems, respectively, prior to exposure to TRAIL. Freshly isolated cells from patients with MCL were isolated, purified and incubated with different forms of TRAIL as described above for CLL cells. Samples were either analyzed immediately for apoptosis or stored at −80° C. for subsequent Western blotting. Other methods and reagents were as described (Inoue (2004 Cell Death Differ 11 Suppl 2, S193-206); MacFarlane et al., 2005 ibid).
(§1) Apoptosis was quantified by phosphatidylserine (PS) externalization in the presence of propidium iodide as described (MacFarlane et al., 2002 ibid.). Samples for Western blot analysis were prepared and caspase processing detected as described (Inoue et al., 2004 ibid.; MacFarlane et al., 2005 ibid.).
We also obtained three samples from patients with mantle cell lymphoma (MCL), an incurable and aggressive disease that accounts for ˜6% of all non-Hodgkin's lymphoma. There are no standard treatments for MCL and the prognosis is very poor particularly for the blastoid variant. MCL cells were isolated and exposed to the different forms of TRAIL after pre-treatment for 16 h with depsipeptide (5 nM).

Ramos cells [1] = assay: Caspase-8 and -3 processing by Western blot in Ramos cells; assay type: cell-based; settings: FIG. 1D
Method: (§2) Cells were also exposed to HGS-ETR1 or HGSETR2 (1 μg ml^−1). C: Ramos or Jurkat cells were pre-incubated for 30 min either alone or with TRAIL-R1 blocking Ab or TRAIL-R2 neutralizing Ab (5 μg ml^−1). […] D: Ramos and Jurkat cells were exposed to wt TRAIL or TRAIL mutants as described above and processing of caspase-3 and -8 determined by Western blot analysis. The asterisk indicates a non-specific band. The lower panel of the blot for detection of the caspase-8 p18 subunit was exposed for twice as long as the upper panel. Apoptosis was assessed by phosphatidylserine externalization and results expressed as the Means±SEM of at least 3 separate determinations.
as §1
(§3) To confirm that the mutants were inducing apoptosis, we examined their effects on the processing of caspase-8, the apical caspase in death receptor-induced apoptosis and caspase-3, an effector caspase.

Jurkat cells [2] = assay: Caspase-8 and -3 processing by Western blot in Jurkat cells; assay type: cell-based; settings: FIG. 1D
Method: as §2, §1, §3

[3] = test system: TRAIL DISC in Jurkat cells; assay: DISC analysis with biotinylated TRAIL in Jurkat cells; assay type: cell-based; settings: biotinylated ligand 500 ng ml^−1, 30 min
Method: (§4) After exposure of the cells for 30 min, DISC complexes were isolated and analyzed for the indicated proteins by Western blotting. To provide an unstimulated receptor control (u/s), biotinylated wt or mutant TRAIL was added to lysate from untreated cells. C: Freshly isolated cells from patients with CLL were incubated for 16 h either alone or in the presence of depsipeptide (10 nM). […] The different symbols used indicate data from six individual patients and the solid line indicates the Mean.
(§5) Ramos or Jurkat cells (5×10^7 cells per treatment) were exposed to biotin-tagged recombinant His-TRAIL (biotinylated TRAIL) or one of its mutant forms (500 ng ml^−1) for 30 min and then DISC formation assessed as described previously (MacFarlane et al., 2002 ibid.).

[4] = test system: TRAIL DISC in Ramos cells; assay: DISC analysis with biotinylated TRAIL in Ramos cells; assay type: cell-based; settings: biotinylated ligand 500 ng ml^−1, 30 min
Method: as §4, §5

Jurkat cells [5] = assay: Apoptosis by phosphatidylserine (PS) externalization in Jurkat cells; assay type: cell-based; settings: for % PS+ cells, Jurkat: 4 h exposure, 500 ng ml^−, Mean ± SEM of at least three determinations; for ability to induce apoptosis in Jurkat cells (in words): PS externalization, compared with wt TRAIL
Method: as §2, with “determinations. […]” for “determinations.”
as §1
(§6) Ramos and Jurkat T cells (clone E6-1) were cultured as described (MacFarlane et al, 2005 ibid.). The breast tumour cell line, MCF-7 (clone F43) was cultured as described previously (MacFarlane et al., 2000 J. Cell Biol. 148, 1239-1254). Cells were cultured for either 4 h (Ramos and Jurkat) or 6 h (MCF-7) with His-TRAIL (MacFarlane et al, 1997 J Biol Chem 272, 25417-25420), HGS-ETR1 or HGS-ETR2 (Human Genome Sciences), or a mutant form of His-TRAIL (MacFarlane et al, 2005 ibid.). Samples were analyzed for apoptosis, Western blotting, or TRAIL DISC activation as described (MacFarlane et al, 2005 ibid.; MacFarlane et al. 2002 Oncogene 21, 6809-6818). Mutants of His-TRAIL (residues 95-281) were generated using the Quik-Change site-directed mutagenesis kit (Stratagene, Calif.), confirmed by DNA sequencing, expressed in E. coli and purified as described (MacFarlane et al, 1997 ibid.). For siRNA targeting of TRAIL-R1/-R2, MCF-7 cells were seeded into six-well plates immediately prior to effectene-mediated RNAi transfection with either a negative control siRNA (30 nM, Ambion, #4611), or preannealed siRNA oligonucleotides for TRAIL-R1 or TRAIL-R2 (30 nM, Ambion), with the sequence and validity described (Ren et al, 2004 Mol. Biol. Cell vol 15 pp 5064-5074). After 40 h of transfection the cells were collected and total TRAIL-R1 or TRAIL-R2 levels assessed. Where indicated, RNAi transfected MCF-7 cells were either left untreated or exposed to wt-TRAIL and apoptosis assessed by the extent of Bax activation, determined using the conformation specific Bax MAb, clone 3 (Dewson et al, 2003 Oncogene vol 22 pp 2643-54).

Ramos cells [6] = assay: Apoptosis by phosphatidylserine (PS) externalization in Ramos cells; assay type: cell-based; settings: for % PS+ cells, Ramos: 4 h exposure, 500 ng ml^−, Mean ± SEM of at least three determinations; for ability to induce apoptosis in Ramos cells (in words): PS externalization, compared with wt TRAIL
Method: as §2
(§7) Ramos, an Epstein-Barr virus-negative Burkitt's lymphoma cell line, and Jurkat T cells (clone E6-1) were cultured as described (MacFarlane et al (2005 Cell Death and Differentiation vol 12 pages 773-782)). Blood samples were obtained from CLL patients, with patient consent and local ethical committee approval and CLL cells purified as described (MacFarlane et al (2002 Oncogene 21, 6809-6818). Cells were incubated for 16 h with depsipeptide (10 nM), provided by Dr. E. Sausville (NCI, USA). Cells were then cultured for a further 6 h with either HGSETR1 or HGS-ETR2, agonistic mAbs to TRAIL-R1 or -R2, respectively (Human Genome Sciences, Rockville, Md.), His-TRAIL-LE (a recombinant TRAIL with low endotoxin—Alexis Corporation, Nottingham, UK), His-TRAIL, a similar form of human recombinant TRAIL (MacFarlane et al (1997 J Biol Chem 272, 25417-25420)) but not further purified to reduce endotoxin levels or a mutant form of His-TRAIL as described (MacFarlane et al., 2005 ibid.). Cell lines were also pre-incubated for 30 min with a TRAIL-R1 blocking Ab and a TRAIL-R2 neutralizing Ab from Alexis and R&D systems, respectively, prior to exposure to TRAIL. Freshly isolated cells from patients with MCL were isolated, purified and incubated with different forms of TRAIL as described above for CLL cells. Samples were either analyzed immediately for apoptosis or stored at −80° C. for subsequent Western blotting. Other methods and reagents were as described (Inoue (2004 Cell Death Differ 11 Suppl 2, S193-206); MacFarlane et al., 2005 ibid).
as §1
as §6, with “Where indicated, RNAi transfected MCF-7 cells were either left untreated or exposed to wt-TRAIL and apoptosis assessed by the extent of Bax activation, determined using the conformation specific Bax MAb, clone 3 (Dewson et al, 2003 Oncogene vol 22 pp 2643-54).” left out

primary CLL cells = assay: Apoptosis in freshly isolated CLL cells after depsipeptide; assay type: cell-based, human; settings: depsipeptide 10 nM 16 h, then 6 h ligand or antibody, FIG. 2C
Method: as §4, §7, §1

Molecule | apoptosis, depsipeptide alone (primary MCL cells; depsipeptide 5 nM 16 h) [%] | processing of caspase-8 and caspase-3 (Ramos cells [1]) | processing of caspases-8 and -3 (Jurkat cells [2]) | DISC formation: receptor bound, FADD and caspase-8 recruitment [3] | DISC formation: receptor bound, FADD and caspase-8 recruitment [4] | inhibition of induced apoptosis by TRAIL-R1 blocking Ab (Jurkat cells [5]; 30 min pre-incubation with Ab (5 μg ml^−1)) | % PS+ cells, Jurkat (Jurkat cells [5]) [%] | ability to induce apoptosis in Jurkat cells (in words) (Jurkat cells [5]) | % PS+ cells, Ramos (Ramos cells [6]) [%] | ability to induce apoptosis in Ramos cells (in words) (Ramos cells [6]) | sensitization of CLL cells to induced apoptosis by depsipeptide (primary CLL cells) | apoptosis, ligand alone (primary MCL cells; no depsipeptide) [%]
C/C=C1\NC(=O)[C@H]2CSSCC/C=C/[C@H](CC(=O)N[C@H](C(C)C)C(=O)N2)OC(=O)[C@H](C(C)C)NC1=O [depsipeptide, reference compound] | 35.4±5 |  |  |  |  |  |  |  |  |  |  | 
B1 |  | not | most potent | bound TRAIL-R2 extensively in the DISC | failed to recruit FADD or caspase-8 to the DISC | not | 58.4 ± 11.6 | potently induced apoptosis | 9.4 ± 1.6 | not in Ramos cells | lack of activity and not | 
B2 |  |  |  | bound neither TRAIL-R1 nor -R2 | failed to recruit FADD or caspase-8 to the DISC |  | 6.4 ± 0.8 | inactive | 13.7 ± 1.3 | largely inactive |  | 
B3 |  | induced the processing | most potent | bound TRAIL-R2 extensively in the DISC | bound both TRAIL-R1 and -R2, and recruited FADD and caspase-8 |  |  |  | 41.8 ± 5.2 |  | sensitized CLL cells | 25.5±3.8
